Data on two molecules can be found in publication PMC9800341, “THOC5 complexes with DDX5, DDX17, and CDK12 to regulate R loop structures and transcription elongation rate”.

The target in one series is T1, GST-THOC6 WT (UniProt Q86W42 1-341).
T1 sequence: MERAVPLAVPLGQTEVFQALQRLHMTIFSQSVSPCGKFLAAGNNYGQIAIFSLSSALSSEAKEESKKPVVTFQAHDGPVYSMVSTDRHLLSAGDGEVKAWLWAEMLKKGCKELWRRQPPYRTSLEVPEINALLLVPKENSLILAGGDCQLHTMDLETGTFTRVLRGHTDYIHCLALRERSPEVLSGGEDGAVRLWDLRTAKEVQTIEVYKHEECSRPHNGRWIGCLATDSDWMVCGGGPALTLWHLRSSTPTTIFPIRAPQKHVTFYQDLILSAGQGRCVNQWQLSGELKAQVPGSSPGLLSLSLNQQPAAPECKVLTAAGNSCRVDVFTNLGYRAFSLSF
Nature of the series: streptavidin pull-down; EMSA: 20 mM Tris pH 7.5, 2 mM DTT, 12 mM MgCl2, 100 mM NaCl, 10% glycerol, 30 min RT; pull-downs: 4 C overnight or 37 C 2 h (Fig S5A: 4 h), buffer not given in. As to conditions: protein: recombinant; tags: GST (pGEX-4T1), FLAG; label: 5' biotin on DNA or RNA strand; blunt.

The target of series [1] is T2, THOC6-FLAG (UniProt Q86W42 1-341).
T2 sequence: T1 sequence
The experiment in a line: streptavidin pull-down; 4 C overnight or 37 C 2 h; EMSA: 20 mM Tris pH 7.5, 2 mM DTT, 12 mM MgCl2, 100 mM NaCl, 10% glycerol, 30 min RT; pull-downs: 4 C overnight or 37 C 2 h (Fig S5A: 4 h), buffer not given in. As to conditions: protein: recombinant; tags: C-terminal FLAG (DYK); label: 5' biotin on DNA or RNA strand; blunt.

Series [2] addresses T2, THOC6-FLAG. The experiment in a line: streptavidin pull-down; 4 C overnight or 37 C; EMSA: 20 mM Tris pH 7.5, 2 mM DTT, 12 mM MgCl2, 100 mM NaCl, 10% glycerol, 30 min RT; pull-downs: 4 C overnight or 37 C 2 h (Fig S5A: 4 h), buffer not given in. As to conditions: protein: recombinant; tags: C-terminal FLAG (DYK); label: 5' biotin on DNA or RNA strand; blunt.

B1: C4D (C4-ssDNA + C4-ssRNA) (DNA:RNA)
DNA: CCCGGGAGGCGGAGGTTGCAGTGAACCAAGATCGCGCCATTGCACTCCAGCCTGGG
RNA: CCCAGGCUGGAGUGCAAUGGCGCGAUCUUGGUUCACUGCAACCUCCGCCUCCCGGG
As to B1, the binding result with GST-THOC6 WT and with THOC6-FLAG [1] was “binds” each time.

B2: OSD (OS4D; OS-ssDNA + OS-ssRNA) (DNA:RNA)
DNA: CGCCCTCCCGCCCCCTCGGGGCCCCGCCCCTGGGCCTCTCAGGCCCCTCCCCTGCGCTCC
RNA: GGAGCGCAGGGGAGGGGCCUGAGAGGCCCAGGGGCGGGGCCCCGAGGGGGCGGGAGGGCG
As for B2, the binding result with THOC6-FLAG [2] is recorded as “binds”.
